This passage reports Kd results from publication PMC2754608, “Toll-Like Receptor 4 Decoy, TOY, Attenuates Gram-Negative Bacterial Sepsis” (PLoS ONE, 2009).

The labels stand for the following.
B2: myeloid differentiation protein-2 (MD-2) (natural protein, human, UniProt Q9Y6Y9 19-160, looked up)
chain: QKQYWVCNSSDASISYTYCDKMQYPISINVNPCIELKRSKGLLHIFYIPRRDLKQLYFNLYITVNTMNLPKRKEVICRGSDDDYSFCRALKGETVNTTISFSFKGIKFSKGKYKCVVEAISGSPEEMLFCLEFVILHQPNSN
notes: also called hMD-2

The target of test [1] is B2. As to the kind of experiment: SPR; BIAcore 3000; TFE, TOY3 or TOY8 (1 µg) amine-coupled (NHS/EDC) on a CM5 chip at about 2,000 RU; BSA on a control portion of the chip; recombinant MD-2 flowed over; nonlinear curve fitting with BIAEVALUATION
To be noted: both partners purified. (In general: Surface plasmon resonance follows binding to a sensor surface in real time, without labels.)

The target in test [2] is T1, TLR4 full-length ectodomain fused to IgG-Fc (TFE) (human, UniProt O00206 27-631).
T1 construct: Toll-like receptor 4 (TLR4), human, full-length ectodomain, amino acid residues 27-631; Disulfide-linked dimer through the Fc domain (non-reducing SDS-PAGE); N-glycosylated; source: recombinant CHO cells (dhfr-deficient, MTX amplification), secreted, purified (Protein-A sepharose); not shown: Fc (human IgG1), C-terminal, kept
The description is as above. As to conditions: both partners purified.

The Kd is a measure of binding affinity in units of concentration.

B1: TLR4 decoy receptor-8 (TOY8) (Fc fusion)
chain: EPCVEVVPNITYQCMELNFYKIPDNLPFSTKNLDLSFNPLRHLGSYSFFSFPELQVLDLSRCEIQTIEDGAYQSLSHLSTLILTGNPIQSLALGAFSGLSSLQKLVAVETNLASLENFPIGHLKTLKELNVAHNLIQSFKLPEYFSNLTNLEHLDLSSNKIQSIYCTDLRVLHQMPLLNLSLDLSLNPMNFIQPGAFKEIRLHKLTLRNNFDSLNVMKTCIQGLAGLEVHRLVLGEFRNEGNLEKFDKSALEGLCNLTIEEFRLAYLDYYLDDIIDLFNCLTNVSSFSLVSVTIERVKDFSYNFGWQHLELVNCKFGQFPTLKLKSLKRLTFTSNKGGNAFSEVDLPSLEFLDLSRNGLSFKGCCSQSDFGTTSLKYLDLSFNGVITMSSNFLGLEQLEHLDFQHSNLKQMSEFSVFLSLRNLIYLDISHTHTRVAFNGIFNGLSSLEVLKMAGNSFQENFLPDIFTELRNLTFLDLSQCQLEQLSPTAFNSLSSLQVLNMASNQLKSVPDGIFDRLTSLQKIWLHTNPWDCSCPRIDYLSRWLNKNSQKEQGSAKCSGSGKPVRSIICP
modifications: N-glycosylated (CHO). TLR4 27-527 limits are printed; VLRB.61 fragment limits are only in a figure, so taken from the TV8 hybrid crystal construct (PDB 2Z63, recalled from memory). Hagfish species …
Regarding B1, the Kd in test [1] was about 56 nM.
In the case of B2, the dissociation constant Kd in test [2] was about 81 nM.

B3: TLR4 decoy receptor-3 (TOY3) (Fc fusion)
chain: EPCVEVVPNITYQCMELNFYKIPDNLPFSTKNLDLSFNPLRHLGSYSFFSFPELQVLDLSRCEIQTIEDGAYQSLSHLSTLILTGNPIQSLALGAFSGLSSLQKLVAVETNLASLENFPIGHLKTLKELNVAHNLIQSFKLPEYFSNLTNLEHLDLSSNKIQSIYCTDLRVLHQMPLLNLSLDLSLNPMNFIQPGAFKEIRLKELALDTNQLKSVPDGIFDRLTSLQKIWLHTNPWDCSCPRIDYLSRWLNKNSQKEQGSAKCSGSGKPVRSIICP
modifications: N-glycosylated (CHO). TLR4 27-227 limits are printed; VLRB.61 fragment limits are only in a figure, so taken from the TV3 hybrid crystal construct (PDB 2Z62, recalled from memory). Hagfish species …
In the case of B3, the Kd in test [1] was about 76 nM.
